Measurements as given in patent US20210087286A1 (Amgen, published 2021).
Positions count from the first letter of the chain named. Each block holds one binder with its values, some of them ahead of it.

Experiments:
human GIPR = biological target: T1, human GIPR (human, UniProt P48546 22-466); test: cell-based or functional assay
T1 sequence: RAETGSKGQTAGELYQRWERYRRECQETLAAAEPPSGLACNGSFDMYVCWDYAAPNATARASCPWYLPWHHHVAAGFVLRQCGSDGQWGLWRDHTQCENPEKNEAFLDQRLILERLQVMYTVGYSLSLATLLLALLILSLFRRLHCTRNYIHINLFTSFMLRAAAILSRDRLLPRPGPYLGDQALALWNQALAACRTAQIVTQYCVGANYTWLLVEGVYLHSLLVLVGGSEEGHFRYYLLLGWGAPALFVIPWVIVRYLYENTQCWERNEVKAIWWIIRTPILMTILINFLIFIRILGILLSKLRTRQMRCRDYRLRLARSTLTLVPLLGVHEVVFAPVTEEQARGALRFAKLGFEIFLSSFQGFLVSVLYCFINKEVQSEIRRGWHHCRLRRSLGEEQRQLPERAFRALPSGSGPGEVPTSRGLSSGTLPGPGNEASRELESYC

huGIPR ECD = biological target: T2, huGIPR ECD (human, UniProt P48546 21-129, limits assumed); test: SPR (Biacore T200), mAb captured via goat anti-huFc, 200 nM huGIPR ECD analyte
T2 construct: Soluble analyte of the Biacore assay; also called human GIPR extracellular domain
T2 sequence: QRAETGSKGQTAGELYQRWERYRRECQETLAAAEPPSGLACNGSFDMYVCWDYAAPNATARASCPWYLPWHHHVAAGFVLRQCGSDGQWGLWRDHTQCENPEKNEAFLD
Experimental: Immobilization of Goat-anti-huFc antibody to a S-CM5 sensor chip surface was performed according to manufacturer's instructions. The Biacore instrument running buffer is 0.005% P20/PBS 1×, pH7.4, no calcium chloride, no magnesium chloride. Briefly, carboxyl groups on the sensor chip surfaces were activated by injecting 60 μL of a mixture containing 0.2 M N-ethyl-N′-(dimethylaminopropyl) carbodiimide (EDC) and 0.05 M N-hydroxysuccinimide (NHS). Goat-anti-huFc antibody was diluted in 10 mM sodium acetate, pH 4.0 at 20 μg/ml and injected over the activated chip surface at 30 uL/min for 6 minutes. Excess reactive groups on the surfaces were deactivated by injecting 60 μL of 1 M ethanolamine. Final immobilized level was ˜8000 resonance units (RU).
Binding assays were carried out on the immobilized goat anti-huFc antibody surface by Biacore T200. The experiment was performed at 25° C. The instrument running buffer was 0.005% P20/PBS. The goat anti-huFc capture antibody was covalently attached to the sensor chip surface via standard amine coupling to flow cells channel 1-4. The anti-huGIPR antibodies were diluted in sample buffer (0.1 mg/ml BSA, 0.005% P20, PBS) to ˜10 nM then captured to flow cells channel 2, 3, 4. Flow cell channel 1 was as a blank reference surface without injection of anti-huGIPR antibody. The captured antibody response range was ˜250 RU. Then 200 nM huGIPR ECD was injected over the goat anti-huFc antibody captured anti-huGIPR antibody surfaces at flow rate 50 ul/min for 3 minutes. After a 10 minutes dissociation, each surface was regenerated by injecting 10 mM Glycine, pH 1.5 for 30 seconds twice.

B1: 2G10.316 (antibody, human IgG1, kappa, N297G, V domains shown)
VH: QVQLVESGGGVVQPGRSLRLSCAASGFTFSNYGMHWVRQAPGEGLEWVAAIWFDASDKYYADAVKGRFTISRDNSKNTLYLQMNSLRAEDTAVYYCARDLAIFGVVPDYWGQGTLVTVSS
VL: EIVMTQSPATLSVSPGERATLSCRASQSVFRHLAWYQQKPGQAPRLLIYEAATRATGIPARFSGSGSGTEFTLTISSLQSEDFAVYYCQQYQNWPLTFGGGTKVEIKR
notes: also called SS-26193
cAMP IC50 (human GIPR): 14.7 nM
koff (huGIPR ECD): < 5e-05 s⁻¹

B3: 2G10.306 (antibody, human IgG1, kappa, N297G, V domains shown)
VH: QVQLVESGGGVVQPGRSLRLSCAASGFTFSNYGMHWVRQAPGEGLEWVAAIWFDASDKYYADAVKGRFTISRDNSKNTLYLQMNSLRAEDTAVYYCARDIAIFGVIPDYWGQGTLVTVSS
VL: B1 VL with F30L, R31T
notes: also called SS-26183
cAMP IC50 (human GIPR): 20.7 nM
koff (huGIPR ECD): < 5e-05 s⁻¹

B4: 2G10.318 (antibody, human IgG1, kappa, N297G, V domains shown)
VH: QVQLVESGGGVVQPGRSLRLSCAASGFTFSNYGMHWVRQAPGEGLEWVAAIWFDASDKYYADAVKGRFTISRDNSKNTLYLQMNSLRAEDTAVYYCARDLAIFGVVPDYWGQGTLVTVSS
VL: B1 VL with F30L, R31S, Q92N
cAMP IC50 (human GIPR): 20.9 nM
koff (huGIPR ECD): < 5e-05 s⁻¹

B6: 2G10.311 (antibody, human IgG1, kappa, N297G, V domains shown)
VH: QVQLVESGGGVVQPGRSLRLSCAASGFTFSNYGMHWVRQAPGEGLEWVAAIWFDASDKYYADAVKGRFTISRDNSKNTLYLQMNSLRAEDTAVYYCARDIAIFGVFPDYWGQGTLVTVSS
VL: B1 VL with F30N, R31V, E50Q, Q92N, N93Q
notes: also called SS-26188
cAMP IC50 (human GIPR): 14.9 nM
koff (huGIPR ECD): 6e-05 s⁻¹

B7: 2G10.322 (antibody, human IgG1, kappa, N297G, V domains shown)
VH: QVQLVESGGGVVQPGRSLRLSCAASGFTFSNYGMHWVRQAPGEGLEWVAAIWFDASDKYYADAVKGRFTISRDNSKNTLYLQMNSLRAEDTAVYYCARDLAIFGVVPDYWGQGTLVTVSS
VL: B1 VL with F30M, R31S
cAMP IC50 (human GIPR): 17.9 nM
koff (huGIPR ECD): 6e-05 s⁻¹

B9: 2G10.321 (antibody, human IgG1, kappa, N297G, V domains shown)
VH: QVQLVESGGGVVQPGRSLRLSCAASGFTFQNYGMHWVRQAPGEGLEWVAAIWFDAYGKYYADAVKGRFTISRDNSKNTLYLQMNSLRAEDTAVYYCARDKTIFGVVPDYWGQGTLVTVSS
VL: B1 VL with F30N, Q92N, N93Q
cAMP IC50 (human GIPR): 7.46 nM
koff (huGIPR ECD): < 5e-05 s⁻¹

B10: 2G10.305 (antibody, human IgG1, kappa, N297G, V domains shown)
VH: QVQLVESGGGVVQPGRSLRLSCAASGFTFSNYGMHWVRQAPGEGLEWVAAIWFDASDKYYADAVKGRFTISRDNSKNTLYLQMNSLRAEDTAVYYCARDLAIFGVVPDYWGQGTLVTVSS
VL: B1 VL with F30D, R31V, H32N, E50N
notes: also called SS-26182
cAMP IC50 (human GIPR): 27.2 nM
koff (huGIPR ECD): < 5e-05 s⁻¹

B12: 2G10.312 (antibody, human IgG1, kappa, N297G, V domains shown)
VH: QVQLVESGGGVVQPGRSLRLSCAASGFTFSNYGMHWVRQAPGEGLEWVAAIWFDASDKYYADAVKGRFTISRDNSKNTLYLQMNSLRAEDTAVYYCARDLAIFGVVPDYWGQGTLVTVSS
VL: B1 VL with R31E, Q92N
notes: also called SS-26189
cAMP IC50 (human GIPR): 23.2 nM
koff (huGIPR ECD): < 5e-05 s⁻¹

B13: 2G10.314 (antibody, human IgG1, kappa, N297G, V domains shown)
VH: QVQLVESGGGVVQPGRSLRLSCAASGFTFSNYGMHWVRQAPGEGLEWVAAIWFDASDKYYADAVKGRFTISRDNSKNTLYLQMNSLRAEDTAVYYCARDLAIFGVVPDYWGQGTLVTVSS
VL: B1 VL with F30H, R31S, Q92N
notes: also called SS-26191
cAMP IC50 (human GIPR): 17.5 nM
koff (huGIPR ECD): 6e-05 s⁻¹

B14: 2G10.329 (antibody, human IgG1, kappa, N297G, V domains shown)
VH: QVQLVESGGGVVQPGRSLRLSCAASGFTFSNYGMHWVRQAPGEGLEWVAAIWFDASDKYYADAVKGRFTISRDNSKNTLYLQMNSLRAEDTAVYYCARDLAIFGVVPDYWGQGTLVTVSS
VL: B1 VL with F30E, R31Q, Q92N
notes: also called SS-26206
cAMP IC50 (human GIPR): 26.8 nM
koff (huGIPR ECD): 6e-05 s⁻¹

B15: 2G10.317 (antibody, human IgG1, kappa, N297G, V domains shown)
VH: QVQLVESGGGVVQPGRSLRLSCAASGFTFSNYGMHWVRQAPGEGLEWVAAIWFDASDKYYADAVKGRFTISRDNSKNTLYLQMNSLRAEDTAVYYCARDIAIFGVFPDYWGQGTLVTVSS
VL: B1 VL with F30N, N93Q
notes: also called SS-26194
cAMP IC50 (human GIPR): 13.7 nM
koff (huGIPR ECD): < 5e-05 s⁻¹

B18: 2G10.313 (antibody, human IgG1, kappa, N297G, V domains shown)
VH: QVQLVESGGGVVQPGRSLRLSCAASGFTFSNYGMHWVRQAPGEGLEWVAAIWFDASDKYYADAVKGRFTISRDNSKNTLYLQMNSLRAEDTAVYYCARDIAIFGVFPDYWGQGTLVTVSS
VL: B1 VL with F30D, Q92N, N93Q
notes: also called SS-26190
cAMP IC50 (human GIPR): 20.7 nM
koff (huGIPR ECD): < 5e-05 s⁻¹

B20: 2G10.304 (antibody, human IgG1, kappa, N297G, V domains shown)
VH: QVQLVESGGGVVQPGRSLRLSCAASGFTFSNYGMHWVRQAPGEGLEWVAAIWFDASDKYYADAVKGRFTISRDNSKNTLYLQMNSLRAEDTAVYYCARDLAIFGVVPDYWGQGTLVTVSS
VL: B1 VL with F30N
notes: also called SS-26181
cAMP IC50 (human GIPR): 16.9 nM
koff (huGIPR ECD): < 5e-05 s⁻¹

B21: 2G10.324 (antibody, human IgG1, kappa, N297G, V domains shown)
VH: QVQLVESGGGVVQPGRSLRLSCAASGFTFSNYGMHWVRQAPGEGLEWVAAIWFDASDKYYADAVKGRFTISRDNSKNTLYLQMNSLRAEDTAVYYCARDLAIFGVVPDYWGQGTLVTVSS
VL: B1 VL with F30L, R31S
cAMP IC50 (human GIPR): 14.1 nM
koff (huGIPR ECD): < 5e-05 s⁻¹

Now from value to binder:

cAMP IC50 (human GIPR): 12.1 nM
koff (huGIPR ECD): < 5e-05 s⁻¹
B2: 2G10.333 (antibody, human IgG1, kappa, N297G, V domains shown)
VH: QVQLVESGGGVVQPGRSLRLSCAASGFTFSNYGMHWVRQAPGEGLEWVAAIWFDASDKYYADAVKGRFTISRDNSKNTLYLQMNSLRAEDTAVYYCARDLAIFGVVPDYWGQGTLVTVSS
VL: B1 VL with F30S, N93H
notes: also called SS-26210

cAMP IC50 (human GIPR): 37.6 nM
koff (huGIPR ECD): 6e-05 s⁻¹
B5: 2G10.343 (antibody, human IgG1, kappa, N297G, V domains shown)
VH: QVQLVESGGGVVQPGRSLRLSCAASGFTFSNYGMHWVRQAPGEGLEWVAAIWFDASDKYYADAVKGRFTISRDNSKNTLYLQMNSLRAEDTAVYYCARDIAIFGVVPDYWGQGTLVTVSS
VL: B1 VL with F30L, R31E, Q92N

cAMP IC50 (human GIPR): 12.9 nM
koff (huGIPR ECD): 6e-05 s⁻¹
B8: 2G10.332 (antibody, human IgG1, kappa, N297G, V domains shown)
VH: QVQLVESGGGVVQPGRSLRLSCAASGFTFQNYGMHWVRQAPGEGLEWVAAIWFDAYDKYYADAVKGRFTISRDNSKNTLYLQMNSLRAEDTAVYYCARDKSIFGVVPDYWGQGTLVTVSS
VL: B1 VL with F30L, R31S, Q92N
notes: also called SS-26209

cAMP IC50 (human GIPR): 29.6 nM
koff (huGIPR ECD): 0.0002 s⁻¹
B11: 2G10.336 (antibody, human IgG1, kappa, N297G, V domains shown)
VH: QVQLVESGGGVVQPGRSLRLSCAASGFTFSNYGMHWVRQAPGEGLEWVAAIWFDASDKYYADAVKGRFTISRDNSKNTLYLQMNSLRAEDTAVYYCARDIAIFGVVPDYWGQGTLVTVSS
VL: B1 VL with F30Q, R31S
notes: also called SS-26213

cAMP IC50 (human GIPR): 25.9 nM
koff (huGIPR ECD): 6e-05 s⁻¹
B16: 2G10.340 (antibody, human IgG1, kappa, N297G, V domains shown)
VH: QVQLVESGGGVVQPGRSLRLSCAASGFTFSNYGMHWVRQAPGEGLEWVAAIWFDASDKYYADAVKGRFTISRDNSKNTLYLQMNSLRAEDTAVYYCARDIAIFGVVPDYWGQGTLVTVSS
VL: B1 VL with F30H, R31T, H32N, E50N

cAMP IC50 (human GIPR): 24.7 nM
koff (huGIPR ECD): 7e-05 s⁻¹
B17: 2G10.341 (antibody, human IgG1, kappa, N297G, V domains shown)
VH: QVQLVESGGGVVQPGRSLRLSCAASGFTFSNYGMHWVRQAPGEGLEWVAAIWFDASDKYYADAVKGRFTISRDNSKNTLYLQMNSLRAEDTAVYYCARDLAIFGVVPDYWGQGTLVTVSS
VL: B1 VL with F30D, R31V, Q92N, N93Q

cAMP IC50 (human GIPR): 25.9 nM
koff (huGIPR ECD): 6e-05 s⁻¹
B19: 2G10.335 (antibody, human IgG1, kappa, N297G, V domains shown)
VH: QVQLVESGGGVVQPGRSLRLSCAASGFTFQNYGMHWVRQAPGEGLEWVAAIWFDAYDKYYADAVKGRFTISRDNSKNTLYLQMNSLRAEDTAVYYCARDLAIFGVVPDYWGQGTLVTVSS
VL: B1 VL with F30T, R31S, Q92N, N93Q
notes: also called SS-26212
